Data: patent US12168677B2, “Proteins for the treatment of epithelial barrier function disorders” (Genevive, Inc., priority 2017, dated 2024)

Legend:
[1] = system: HCT8 enterocytes and HT29-MTX goblet cells; test: Co-culture trans-epithelial electrical resistance (TEER) assay with heat killed E. coli challenge; assay type: cell-based, human; details: TEER after 24 hours
Protocol: Assays were performed as described below in trans-well plates where co-cultures of multiple cell types were performed utilizing a permeable membrane to separate cells. In the apical (top) chamber, human colonic epithelial cells, consisting of a mixture of enterocytes and goblet cells, were cultured until cells obtained tight junction formation and barrier function capacity as assessed by measurement of trans-epithelial electrical resistance (TEER). In the basolateral chamber, monocytes were cultured separately. Epithelial cells were primed with inflammatory cytokines. The assays measured the effect of a therapeutic protein, i.e., SG-15, on epithelial barrier function, wound healing, and production of cytokines. Cell culture. The HCT8 human enterocyte cell line (ATCC Cat. No. CCL-244) was maintained in RPMI-1640 medium supplemented with 10% fetal bovine serum, 100 IU/ml penicillin, 100 μg/ml streptomycin, 10 μg/ml gentamicin and 0.25 μg/ml amphotericin (cRPMI). HT29-MTX human goblet cells (Sigma-Aldrich (St. Louis, MO; Cat. No. 12040401) were maintained in DMEM medium with 10% fetal bovine serum, 100 IU/ml penicillin, 100 μg/ml streptomycin, 10 μg/ml gentamicin and 0.25 μg/ml amphotericin (cDMEM). Epithelial cells were passaged by trypsinization and were used between 5 and 15 passages following thawing from liquid nitrogen stocks. U937 monocytes (ATCC Cat. No. 700928) were maintained in cRPMI medium as a suspension culture, and split by dilution as needed to maintain cells between 5×10^5 and 2×10^6 cells/ml. U937 cells were used up to passage 18 following thawing from liquid nitrogen stocks. Epithelial cell culture. A mixture of HCT8 enterocytes and HT29-MTX goblet cells were plated at a 9:1 ratio, respectively, in the apical chamber of the transwell plate as described previously (Berget et al., 2017, Int J Mol Sci, 18:1573; Beduneau et al., 2014, Eur J Pharm Biopharm, 87:290-298). A total of 10^5 cells were plated in each well (9×10^4 HCT8 cells and 1×10^4 HT29-MTX cells per well). Epithelial cells were trypsinized from culture flasks and viable cells determined by trypan blue counting. The correct volumes of each cell type were combined in a single tube and centrifuged. The cell pellet was resuspended in cRPMI and added to the apical chamber of the transwell plate. […] Monocyte culture. On day 6 of epithelial cell culture 2×10^5 cells/well U937 monocytes were plated into a 96 well receiver plate. […] Co-culture assay. […] After 24 hours fresh cRPMI was added to the epithelial cell culture plate. Trans-epithelial electrical resistance (TEER) readings were measured after the IFN-γ treatment and were used as the pre-treatment TEER values. SG-15 was then added to the apical chamber of the transwell plate at a final concentration of 1 μg/ml (40 nM). The myosin light chain kinase (MLCK) inhibitor peptide 18 (BioTechne, Minneapolis, MN) was used at 50 nM as a positive control to prevent inflammation induced barrier disruption (Zolotarevskky et al., 202, Gastroenterology, 123:163-172). The bacterially derived molecule staurosporine was used at 100 nM as a negative control to induce apoptosis and exacerbate barrier disruption (Antonsson and Persson, 2009, Anticancer Res, 29:2893-2898). […] Following pre-incubation with test compounds the transwell insert containing the enterocytes was transferred on top of the receiver plate containing U937 monocytes. Heat killed E. coli (HK E. coli) (bacteria heated to 80° C. for 40 minutes) was then added to both the apical and basolateral chambers and a multiplicity of infection (MOI) of 10. […] The TEER assays were performed with recombinantly expressed mature (lacking a signal peptide) SG-15 protein such as that described in Example 1A above. Data analysis. Raw electrical resistance values in ohms (Ω) were converted to ohms per square centimeter (Ωcm^2) based on the surface area of the transwell insert (0.143 cm^2). […]

TNF-α = TNF-α production by monocytes in co-culture TEER assay (Luminex); assay type: cell-based, human; details: pre-incubated 6 hours prior to HK E. coli; basolateral supernatant
Protocol: Production of the cytokines TNF-α, IL-23, and IL-10 by monocytes was measured in the tissue culture supernatant from the basolateral chamber of the co-culture TEER assay performed in Example 1B. Following TEER readings, the supernatants were centrifuged at 10,000 g for 5 minutes at 4° C. to remove cell debris. Luminex analysis was performed according to the manufacturer's instructions (Magpix instrument and xPonent software version 4.2; Luminex Corporation (Austin, TX)). Luminex analysis was performed to determine the […] concentration of TNF-α and IL-23 produced by monocytes. Luminex analysis utilizes a bead-based system for quantification of multiple cytokines from a single sample. Like an ELISA, Luminex beads are coated with a capture antibody, and incubation with samples allows the target to bind to the capture antibody. Beads are washed and incubated with a fluorescently labeled detection antibody for quantification of bound target. Cytometric analysis is used to differentiate bead populations, which are loaded with differential fluorescent dyes, and to quantify cytokine levels by measuring detection antibody signal. TNF-α, IL-23, and IL-10 production in untreated cells and cells pre-incubated with SG-15 for 6 hours prior to HK E. coli treatment was normalized to pg/ml concentrations elicited by HK E. coli only, which was set to 1.0. […] The graphs in FIGS. 2A, 2B and 2C each represent data pooled from an individual experiment (n=3).

DSS model: body weight = assay type: in vivo, C57BL/6 mice; details: 50 nmoles/kg i.p. b.i.d.; 2.5% DSS 6 days; percent change from day 0
Protocol: Eight-week old C57BL/6 mice were housed 5 animals were cage and given food and water ad libitum for 7 days. Following the 7-day acclimation period, treatments were initiated concurrently with addition of 2.5% DSS to the drinking water. […] The mice were treated with 2.5% dextran sodium sulfate (DSS) in their drinking water for 6 days. Treatments were continued with SG-15 or […]-GLP2 twice a day (b.i.d.) in the morning and evening (every 8 and 16 hr) with i.p. injections at 50 nmoles/kg. Fresh 2.5% DSS drinking water was prepared every 2 days. Body weight was measured daily from mice included in the DSS model described in Example 1E. Percent change from starting weight on day 0 was determined for each mouse. […] Weight loss in mice treated with SG-15 at day 6 was similar to weight loss observed with […]-GLP2. The graphs in FIG. 6 represent data pooled from the 2 individual experiments (n=20).

[2] = protein 1 μg/ml (40 nM) added 30 minutes before HK E. coli
[3] = protein 1 μg/ml (40 nM) pre-incubated 6 hours before HK E. coli

Molecule | TEER of epithelial cell barrier (percent of untreated samples) [1, 2] [%] | TEER of epithelial cell barrier (percent of untreated samples) [1, 3] | TNF-α production normalized to HK E. coli only (set to 1.0) (TNF-α) | Body weight compared to vehicle-treated DSS mice (DSS model: body weight)
SG-16: 119 amino acid protein (SEQ ID NO:9) encoded by the genome of Eubacterium eligens (protein, listed as Eubacterium eligens) MTGCSGSKEPDNKTSVDYTVVENADLPEELKKLIESKKDKVMRLTYTTKDYTYVVAGYGTRETSGYSIKVNDVYTGDNALYIDLNLIGPAAGEAVNEVETYPVIVLKMERREESVVFKM | 60.7 | about 60.0% | 1.29 | 
SG-17: 327 amino acid protein (SEQ ID NO:13) encoded by the genome of Eubacterium eligens (protein, listed as Eubacterium eligens) CNSKIDVKYDYNVEDYVQLGQYENISVQVDKTSIENELIESKIKQDVEDNTTYTEVDRGAIASDQILVTYTATSSGASLSGLTNTDGKTMILGTDTLGLELDELDQALYGMTPGQTKILIVDIPEDYSSDLYKGTRVVFELTMQTVAQANVPMITNAYVKEAFGYDTVEEYRQSIKESLETDINSKVENKIQEDVLSSLQDTFKISSYPDSLMEETRSRLETSIGFYADFSNLSKDEYCQKQYGLSFDDFVKKSVVQQLIMEAIVKDRNMTMREYDYKGSLDDFAADNGYSNADTFVEKFGKDKIVKAMLVQKAQDYVIEHANISYK | 72.0 | about 74.2% | 0.73 | did not alter body weight
SG-15: 400 amino acid protein (SEQ ID NO:1) encoded by the genome of Eubacterium eligens (protein, listed as Eubacterium eligens) EYTEIRTASELVEAAKSASGNYKLMTDIDMTGVEWTPWDFSGTFDGNGHSILNLSVKTVSKKTMKTYDGNRKEYKTYGAGFFGVLTGAKVTGLDIYGARIEITTTEPCFAAPIAGLADDSDISDCIIKDTYVSLTDSAKMWGTGGIAGFGSGNLDNITTDVTLVCVDTDAAVRDEQFMGGAYAAGFLNIRNCSITIDGYDSDHGYVHDGGLVGMYMVYPLELSKTYQGEVLNNKVKGMITFFEDNTDRRAYCQANMGEVMNWTYAYSGFTSDFKRNETYDYSVTLLPEMCSNPSYTDVVTEATASDFGYTTHTCSTCGYTYSDTYTIHEHKVDSYSVVKEAASTDKKDGIEAGTCSLCNQTVYREYAANVVTDDNTQATDNKASGTAVKKGMKESTAVFA | 71.4 | 68.5% | 0.91 | significantly improved body weight
SG-18: 267 amino acid protein (SEQ ID NO:19) encoded by the genome of Clostridium bartlettii sp. nov. (protein, listed as Clostridium bartlettii) EVDSSKEQATSKDEKQVVVATSVAITEILDRLGVEVSGVPQTSYELPESAKGATEIGSPMNPDMEIIKSLNPTDVICVDTLGSDFEKQFEENNINADFYNLSNVDGLKETIAALGEKFNKQDKANEILDEIKEVENKVNSNKKSDDKILVLFGAPGSVMVATDKSYIGNLVELAGGNNIFSNATSSFTQINLEEIIKLNPDKILVMTHAVPEAAKKSVEEELSKDLWKNVNAVKNNDITYLENGYFGMSANLQIVEAVEKLGDILYE | 71.0 | about 85.0% | 1.06 | did not alter body weight
